Laboratory results taken from patent US20260216326A1 (PROMETHEUS BIOSCIENCES, published 2026).

T1: human TL1A (Fitzgerald #30R-AT070) (human, UniProt O95150 72-251, limits assumed)
T1 construct: Coated on the ELISA plate at 1 ug/mL; also called TNFSF15
T1 sequence (looked up): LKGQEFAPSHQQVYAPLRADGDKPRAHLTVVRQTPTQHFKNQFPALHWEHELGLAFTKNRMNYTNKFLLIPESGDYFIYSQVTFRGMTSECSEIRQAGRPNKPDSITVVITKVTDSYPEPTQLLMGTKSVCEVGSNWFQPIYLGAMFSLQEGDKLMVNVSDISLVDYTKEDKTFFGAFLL


Molecular target: T1, human TL1A (Fitzgerald #30R-AT070)
Test: ELISA titration, coated human TL1A, culture supernatant

Row | Binder | Kd [nM]
1 | A94 (antibody, human IgG1, V domains shown, human IgG1/kappa (pFuse vectors), culture supernatant) VH: QVQLVQSGAEVKKPGASVKVSCKASGFDIQDTYMHWVRQAPGQGLEWMGRIEPASGHIKYDPKFQVRATITRDTSTSTVYMELSSLRSEDTAVYYCARSGGLPDWWGQGTTVTVSS VL: EIVLTQSPGTLSLSPGERATLSCRASSSVSYMYWYQQKPGQAPRLLIYATSNLASGIPDRFSGSGSGTDFTLTISRLEPEDFAVYYCQQWEGNPRTFGGGTKLEIK | 0.081
2 | A95 (antibody, human IgG1, V domains shown, human IgG1/kappa (pFuse vectors), culture supernatant) VH: QVQLVQSGAEVKKPGASVKVSCKASGFDIQDTYMHWVRQAPGQGLEWMGRIEPASGHIKYDPKFQGRATITTDTSTSTVYMELSSLRSEDTAVYYCARSGGLPDWWGQGTTVTVSS VL: EIVLTQSPGTLSLSPGERATLSCRASSSVSYMYWYQQKPGQAPRPWIYATSNLASGIPDRFSGSGSGTDFTLTISRLEPEDFAVYYCQQWEGNPRTFGGGTKLEIK | 0.105
3 | A96 (antibody, human IgG1, V domains shown, human IgG1/kappa (pFuse vectors), culture supernatant) VH: QVQLVQSGAEVKKPGASVKVSCKASGFDIQDTYMHWVRQAPGQGLEWMGRIEPASGHIKYDPKFQGRATMTRDTSTSTVYMELSSLRSEDTAVYYCARSGGLPDWWGQGTTVTVSS VL: EIVLTQSPGTLSLSPGERATLSCRASSSVSYMYWYQQKPGQAPRPWIYATSNLASGIPDRFSGSGSGTDFTLTISRLEPEDFAVYYCQQWEGNPRTFGGGTKLEIK | 0.095
4 | A97 (antibody, human IgG1, V domains shown, human IgG1/kappa (pFuse vectors), culture supernatant) VH: QVQLVQSGAEVKKPGASVKVSCKASGFDIQDTYMHWVRQAPGQGLEWMGRIEPASGHIKYDPKFQVRVTMTRDTSTSTVYMELSSLRSEDTAVYYCARSGGLPDWWGQGTTVTVSS VL: EIVLTQSPGTLSLSPGERATLSCRASSSVSYMYWYQQKPGQAPRLLIYATSNLASGIPDRFSGSGSGTDFTLTISRLEPEDFAVYYCQQWEGNPRTFGGGTKLEIK | 0.071
5 | A98 (antibody, human IgG1, V domains shown, human IgG1/kappa (pFuse vectors), culture supernatant) VH: QVQLVQSGAEVKKPGASVKVSCKASGFDIQDTYMHWVRQAPGQGLEWMGRIEPASGHIKYDPKFQVRATMTRDTSTSTVYMELSSLRSEDTAVYYCARSGGLPDWWGQGTTVTVSS VL: EIVLTQSPGTLSLSPGERATLSCRASSSVSYMYWYQQKPGQAPRLLIYATSNLASGIPDRFSGSGSGTDFTLTISRLEPEDFAVYYCQQWEGNPRTFGGGTKLEIK | 0.14
6 | A99 (antibody, human IgG1, V domains shown, human IgG1/kappa (pFuse vectors), culture supernatant) VH: QVQLVQSGAEVKKPGASVKVSCKASGFDIQDTYMHWVRQAPGQGLEWMGRIEPASGHIKYDPKFQVRVTITRDTSTSTVYMELSSLRSEDTAVYYCARSGGLPDWWGQGTTVTVSS VL: EIVLTQSPGTLSLSPGERATLSCRASSSVSYMYWYQQKPGQAPRLLIYATSNLASGIPDRFSGSGSGTDFTLTISRLEPEDFAVYYCQQWEGNPRTFGGGTKLEIK | 0.102
7 | A100 (antibody, human IgG1, V domains shown, human IgG1/kappa (pFuse vectors), culture supernatant) VH: QVQLVQSGAEVKKPGASVKVSCKASGFDIQDTYMHWVRQRPGQGLEWIGRIDPASGHTKYDPKFQVRATITTDTSTSTAYLELSSLRSEDTAVYYCARSGGLPDVWGQGTTVTVSS VL: EIVLTQSPGTLSLSPGERATLSCRASSSVSYMYWYQQKPGQAPRLLIYATSNLASGIPDRFSGSGSGTDFTLTISRLEPEDFAVYYCQQWKGNPRTFGGGTKLEIK | 0.084
8 | A101 (antibody, human IgG1, V domains shown, human IgG1/kappa (pFuse vectors), culture supernatant) VH: QVQLVQSGAEVKKPGASVKVSCKASGFDIQDTYMHWVKQRPGQGLEWMGRIDPASGHTKYDPKFQVRATITTDTSTSTAYLELSSLRSEDTAVYYCARSGGLPDVWGQGTTVTVSS VL: EIVLTQSPGTLSLSPGERATLSCRASSSVSYMYWYQQKPGQAPRLLIYATSNLASGIPDRFSGSGSGTDFTLTISRLEPEDFAVYYCQQWKGNPRTFGGGTKLEIK | 0.096
9 | A102 (antibody, human IgG1, V domains shown, human IgG1/kappa (pFuse vectors), culture supernatant) VH: QVQLVQSGAEVKKPGASVKVSCKASGFDIQDTYMHWVKQRPGQGLEWIGRIDPASGHTKYDPKFQVRVTITTDTSTSTAYLELSSLRSEDTAVYYCARSGGLPDVWGQGTTVTVSS VL: EIVLTQSPGTLSLSPGERATLSCRASSSVSYMYWYQQKPGQAPRLLIYATSNLASGIPDRFSGSGSGTDFTLTISRLEPEDFAVYYCQQWKGNPRTFGGGTKLEIK | 0.104
10 | A103 (antibody, human IgG1, V domains shown, human IgG1/kappa (pFuse vectors), culture supernatant) VH: QVQLVQSGAEVKKPGASVKVSCKASGFDIQDTYMHWVKQRPGQGLEWIGRIDPASGHTKYDPKFQVRVTITRDTSTSTAYLELSSLRSEDTAVYYCARSGGLPDVWGQGTTVTVSS VL: EIVLTQSPGTLSLSPGERATLSCRASSSVSYMYWYQQKPGQAPRLLIYATSNLASGIPDRFSGSGSGTDFTLTISRLEPEDFAVYYCQQWKGNPRTFGGGTKLEIK | 0.107
11 | A104 (antibody, human IgG1, V domains shown, human IgG1/kappa (pFuse vectors), culture supernatant) VH: QVQLVQSGAEVKKPGASVKVSCKASGFDIQDTYMHWVRQAPGQGLEWIGRIDPASGHTKYDPKFQVRATITTDTSTSTAYLELSSLRSEDTAVYYCARSGGLPDVWGQGTTVTVSS VL: EIVLTQSPGTLSLSPGERATLSCRASSSVSYMYWYQQKPGQAPRLLIYATSNLASGIPDRFSGSGSGTDFTLTISRLEPEDFAVYYCQQWKGNPRTFGGGTKLEIK | 0.108
12 | A105 (antibody, human IgG1, V domains shown, human IgG1/kappa (pFuse vectors), culture supernatant) VH: QVQLVQSGAEVKKPGASVKVSCKASGFDIQDTYMHWVKQRPGQGLEWIGRIDPASGHTKYDPKFQVRATITTDTSTSTVYMELSSLRSEDTAVYYCARSGGLPDVWGQGTTVTVSS VL: EIVLTQSPGTLSLSPGERATLSCRASSSVSYMYWYQQKPGQAPRLLIYATSNLASGIPDRFSGSGSGTDFTLTISRLEPEDFAVYYCQQWKGNPRTFGGGTKLEIK | 0.11
13 | A107 (antibody, human IgG1, V domains shown, human IgG1/kappa (pFuse vectors), culture supernatant) VH: QVQLVQSGAEVKKPGASVKVSCKASGFDIQDTYMHWVKQRPGQGLEWIGRIDPASGHTKYDPKFQVRATITTDTSTSTAYLELSSLRSEDTAVYYCARSGGLPDVWGQGTTVTVSS VL: EIVLTQSPGTLSLSPGERATLSCRASSSVSYMYWYQQKPGQAPRLLIYATSNLASGIPDRFSGSGSGTDFTLTISRLEPEDFAVYYCQQWEGNPRTFGGGTKLEIK | 0.071
14 | A108 (antibody, human IgG1, V domains shown, human IgG1/kappa (pFuse vectors), culture supernatant) VH: EVQLVQSGAEVKKPGASVKVSCKASGFDIQDTYMHWVRQAPGQGLEWMGRIEPASGHIKYDPKFQGRVTMTRDTSTSTVYMELSSLRSEDTAVYYCARSGGLPDWWGQGTTVTVSS VL: EIVLTQSPGTLSLSPGERATLSCRASSSVSYMYWYQQKPGQAPRPWIYATSNLASGIPDRFSGSGSGTDFTLTISRLEPEDFAVYYCQQWEGNPRTFGGGTKLEIK | 0.055
15 | A109 (antibody, human IgG1, V domains shown, human IgG1/kappa (pFuse vectors), culture supernatant) VH: QVQLVQSGAEVKKPGASVKVSCKASGFDIQDTYMHWVRQAPGQGLEWMGRIEPASGHIKYDPKFQGRVTMTRDTSTSTAYMELSSLRSEDTAVYYCARSGGLPDWWGQGTTVTVSS VL: EIVLTQSPGTLSLSPGERATLSCRASSSVSYMYWYQQKPGQAPRPWIYATSNLASGIPDRFSGSGSGTDFTLTISRLEPEDFAVYYCQQWEGNPRTFGGGTKLEIK | 0.05
16 | A110 (antibody, human IgG1, V domains shown, human IgG1/kappa (pFuse vectors), culture supernatant) VH: QVQLVQSGAEVKKPGASVKVSCKASGFDIQDTYMHWVKQAPGQGLEWMGRIEPASGHIKYDPKFQGRVTMTRDTSTSTVYMELSSLRSEDTAVYYCARSGGLPDWWGQGTTVTVSS VL: EIVLTQSPGTLSLSPGERATLSCRASSSVSYMYWYQQKPGQAPRPWIYATSNLASGIPDRFSGSGSGTDFTLTISRLEPEDFAVYYCQQWEGNPRTFGGGTKLEIK | 0.056
17 | A111 (antibody, human IgG1, V domains shown, human IgG1/kappa (pFuse vectors), culture supernatant) VH: QVQLVQSGAEVKKPGASVKVSCKASGFDIQDTYMHWVRQRPGQGLEWMGRIEPASGHIKYDPKFQGRVTMTRDTSTSTVYMELSSLRSEDTAVYYCARSGGLPDWWGQGTTVTVSS VL: EIVLTQSPGTLSLSPGERATLSCRASSSVSYMYWYQQKPGQAPRPWIYATSNLASGIPDRFSGSGSGTDFTLTISRLEPEDFAVYYCQQWEGNPRTFGGGTKLEIK | 0.068
18 | A112 (antibody, human IgG1, V domains shown, human IgG1/kappa (pFuse vectors), culture supernatant) VH: QVQLVQSGAEVKKPGASVKVSCKASGFDIQDTYMHWVKQRPGQGLEWMGRIEPASGHIKYDPKFQGRVTMTRDTSTSTVYMELSSLRSEDTAVYYCARSGGLPDWWGQGTTVTVSS VL: EIVLTQSPGTLSLSPGERATLSCRASSSVSYMYWYQQKPGQAPRPWIYATSNLASGIPDRFSGSGSGTDFTLTISRLEPEDFAVYYCQQWEGNPRTFGGGTKLEIK | 0.054
19 | A113 (antibody, human IgG1, V domains shown, human IgG1/kappa (pFuse vectors), culture supernatant) VH: QVQLVQSGAEVKKPGASVKVSCKASGFDIQDTYMHWVRQAPGQGLEWMGRIEPASGHIKYDPKFQVRATITRDTSTSTVYMELSSLRSEDTAVYYCARSGGLPDWWGQGTTVTVSS VL: EIVLTQSPGTLSLSPGERATLSCRASSSVSYMYWYQQKPGQAPRPWIYATSNLASGIPDRFSGSGSGTDFTLTISRLEPEDFAVYYCQQWEGNPRTFGGGTKLEIK | 0.05
20 | A114 (antibody, human IgG1, V domains shown, human IgG1/kappa (pFuse vectors), culture supernatant) VH: QVQLVQSGAEVKKPGASVKVSCKASGFDIQDTYMHWVRQAPGQGLEWMGRIEPASGHIKYDPKFQVRVTMTRDTSTSTVYMELSSLRSEDTAVYYCARSGGLPDWWGQGTTVTVSS VL: EIVLTQSPGTLSLSPGERATLSCRASSSVSYMYWYQQKPGQAPRPWIYATSNLASGIPDRFSGSGSGTDFTLTISRLEPEDFAVYYCQQWEGNPRTFGGGTKLEIK | 0.051
21 | A115 (antibody, human IgG1, V domains shown, human IgG1/kappa (pFuse vectors), culture supernatant) VH: QVQLVQSGAEVKKPGASVKVSCKASGFDIQDTYMHWVRQAPGQGLEWMGRIEPASGHIKYDPKFQVRATMTRDTSTSTVYMELSSLRSEDTAVYYCARSGGLPDWWGQGTTVTVSS VL: EIVLTQSPGTLSLSPGERATLSCRASSSVSYMYWYQQKPGQAPRPWIYATSNLASGIPDRFSGSGSGTDFTLTISRLEPEDFAVYYCQQWEGNPRTFGGGTKLEIK | 0.058
22 | A116 (antibody, human IgG1, V domains shown, human IgG1/kappa (pFuse vectors), culture supernatant) VH: QVQLVQSGAEVKKPGASVKVSCKASGFDIQDTYMHWVRQAPGQGLEWMGRIEPASGHIKYDPKFQVRVTITRDTSTSTVYMELSSLRSEDTAVYYCARSGGLPDWWGQGTTVTVSS VL: EIVLTQSPGTLSLSPGERATLSCRASSSVSYMYWYQQKPGQAPRPWIYATSNLASGIPDRFSGSGSGTDFTLTISRLEPEDFAVYYCQQWEGNPRTFGGGTKLEIK | 0.053
